Test results reported in the supplement of paper PMC10567573.

B1: TRIM63 (parent)
chain: QRITQEQEKKLSFIEALIQQYQEQ

Variants of: B1
Assay: protein stability index of a GFP-peptide fusion (GPS, HEK-293T) (PSI 1-6); higher = more stable
Details: c terminus: a fixed tail appended
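Also: lentivirally expressed fusions sorted by FACS into six bins by GFP to DsRed ratio, PSI derived from sequencing read proportions per bin multiplied by bin number.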

| Variant | protein stability index |
| --- | --- |
| QRITQEQEKKLKFIEALIQQYQEQ | 1.91 |
| QRITQEQEKKLPFIEALIQQYQEQ | 3.91 |
| QRITQEQEKKLQFIEALIQQYQEQ | 2.62 |
| QRITQEQEKKLDFIEALIQQYQEQ | 2.86 |
| QRITQEQEKKLHFIEALIQQYQEQ | 2.9 |
| QRITQEQEKKLAFIEALIQQYQEQ | 3.19 |
| QRITQEQEKKLWFIEALIQQYQEQ | 1.57 |
| QRITQEQEKKLIFIEALIQQYQEQ | 2.12 |
| QRITQEQEKKLLFIEALIQQYQEQ | 2.39 |
| QRITQEQEKKLSFIEAFIQQYQEQ | 2.62 |
| QRITQEQEKKLSFIEASIQQYQEQ | 4.13 |
| QRITQEQEKKLSFIEACIQQYQEQ | 2.23 |
| QRITQEQEKKLSFIEAPIQQYQEQ | 4.63 |
| QRITQEQEKKLSFIEAIIQQYQEQ | 2.28 |
| QRITQEQEKKLSFIEAYIQQYQEQ | 1.92 |
| QRITQEQEKKLSFIEAAIQQYQEQ | 3.42 |
| QRITQEQEKKLSFIEAMIQQYQEQ | 2.93 |
| QRITQEQEKKLSFIEANIQQYQEQ | 4.73 |
| QRITQEQEKKLSFIEARIQQYQEQ | 4.34 |
| QRITQEQEKKLSFIEAHIQQYQEQ | 3.06 |
| QRITQEQEKKLSFIEADIQQYQEQ | 4.58 |
| QRITQEQEKKLSFIEAQIQQYQEQ | 4.03 |
| QRITQEQEKKLSFIEATIQQYQEQ | 3.31 |
| QRITQEQEKKLSFIEAKIQQYQEQ | 3.75 |

| Variant | protein stability index |
| --- | --- |
| QRITQEQEKKLSFIEAEIQQYQEQ | 4.81 |
| QRITQEQEKKLSFIEAVIQQYQEQ | 2.2 |
| QRITQEQEKKLSFIEAGIQQYQEQ | 4.54 |
| QRITQEQEKKLSCIEALIQQYQEQ | 3.56 |
| QRITQEQEKKLSEIEALIQQYQEQ | 4.78 |
| QRITQEQEKKLSPIEALIQQYQEQ | 4.68 |
| QRITQEQEKKLSKIEALIQQYQEQ | 3.59 |
| QRITQEQEKKLSVIEALIQQYQEQ | 3.93 |
| QRITQEQEKKLSDIEALIQQYQEQ | 4.83 |
| QRITQEQEKKLSAIEALIQQYQEQ | 4.47 |
| QRITQEQEKKLSIIEALIQQYQEQ | 2.62 |
| QRITQEQEKKLSHIEALIQQYQEQ | 4.14 |
| QRITQEQEKKLSSIEALIQQYQEQ | 4.52 |
| QRITQEQEKKLSRIEALIQQYQEQ | 3.91 |
| QRITQEQEKKLSGIEALIQQYQEQ | 4.6 |
| QRITQEQEKKLSNIEALIQQYQEQ | 4.66 |
| QRITQEQEKKLSQIEALIQQYQEQ | 4.33 |
| QRITQEQEKKLSMIEALIQQYQEQ | 3.25 |
| QRITQEQEKKLSWIEALIQQYQEQ | 1.68 |
| QRITQEQEKKLSYIEALIQQYQEQ | 2.62 |
| QRITQEQEKKLSTIEALIQQYQEQ | 4.78 |
| QRITQEQEKKLSLIEALIQQYQEQ | 2.72 |
| QRITQEQEKKLSFIEALIAQYQEQ | 1.8 |
| QRITQEQEKKLSFIEALIDQYQEQ | 2.46 |

| Variant | protein stability index |
| --- | --- |
| QRITQEQEKKLSFIEALINQYQEQ | 2.25 |
| QRITQEQEKKLSFIEALIIQYQEQ | 2.73 |
| QRITQEQEKKLSFIEALICQYQEQ | 2.6 |
| QRITQEQEKKLSFIEALIFQYQEQ | 1.91 |
| QRITQEQEKKLSFIEALIEQYQEQ | 2.56 |
| QRITQEQEKKLSFIEALIGQYQEQ | 2.51 |
| QRITQEQEKKLSFIEALIKQYQEQ | 2.48 |
| QRITQEQEKKLSFIEALIHQYQEQ | 2.04 |
| QRITQEQEKKQSFIEALIQQYQEQ | 3.08 |
| QRITQEQEKKSSFIEALIQQYQEQ | 2.63 |
| QRITQEQEKKHSFIEALIQQYQEQ | 2.8 |
| QRITQEQEKKWSFIEALIQQYQEQ | 2.26 |
| QRITQEQEKKDSFIEALIQQYQEQ | 3.94 |
| QRITQEQEKKCSFIEALIQQYQEQ | 2.35 |
| QRITQEQEKKASFIEALIQQYQEQ | 3.13 |
| QRITQEQEKKNSFIEALIQQYQEQ | 2.79 |
| QRITQEQEKKGSFIEALIQQYQEQ | 2.53 |
| QRITQEQEKKFSFIEALIQQYQEQ | 1.87 |
| QRITQEQEKKYSFIEALIQQYQEQ | 2.79 |
| QRITQEQEKKMSFIEALIQQYQEQ | 1.82 |
| QRITQEQEKKKSFIEALIQQYQEQ | 1.56 |
| QRITQEQEKKRSFIEALIQQYQEQ | 2.24 |
| QRITQEQEKKTSFIEALIQQYQEQ | 2.54 |
| QRITQEQEKKVSFIEALIQQYQEQ | 1.95 |

| Variant | protein stability index |
| --- | --- |
| QRITQEQEKKESFIEALIQQYQEQ | 3.98 |
| QRITQEQEKKISFIEALIQQYQEQ | 2.64 |
| QRITQEQEKKPSFIEALIQQYQEQ | 2.78 |
| QRITQEQEKKLSFIEALWQQYQEQ | 2.7 |
| QRITQEQEKKLSFIEALRQQYQEQ | 3.4 |
| QRITQEQEKKLSFIEALGQQYQEQ | 3.67 |
| QRITQEQEKKLSFIEALDQQYQEQ | 2.92 |
| QRITQEQEKKLSFIEALTQQYQEQ | 3.31 |
| QRITQEQEKKLSFIEALSQQYQEQ | 2.94 |
| QRITQEQEKKLSFIEALFQQYQEQ | 2.74 |
| QRITQEQEKKLSFIEALEQQYQEQ | 2.2 |
| QRITQEQEKKLSFIEALPQQYQEQ | 4.54 |
| QRITQEQEKKLSFIEALNQQYQEQ | 3.57 |
| QRITQEQEKKLSFIEALYQQYQEQ | 3.29 |
| QRITQEQEKKLSFIEALAQQYQEQ | 2.65 |
| QRITQEQEKKLSFIEALCQQYQEQ | 2.67 |
| QRITQEQEKKLSFIEALMQQYQEQ | 2.22 |
| QRITQEQEKKLSFIEALVQQYQEQ | 3.12 |
| QRITQEQEKKLSFIEALQQQYQEQ | 1.81 |
| QRITQEQEKKLSFIEALKQQYQEQ | 2.42 |
| QRITQEQEKKLSFIEALLQQYQEQ | 2.3 |
| QRITQEQEKKLSFIEALHQQYQEQ | 3.6 |
